Earlier results, collected in paper PMC4769797.

Molecular target: VEGFR1 (Homo sapiens) (UniProt P17948)
Chain of UniProt P17948 (P17948 27-1338): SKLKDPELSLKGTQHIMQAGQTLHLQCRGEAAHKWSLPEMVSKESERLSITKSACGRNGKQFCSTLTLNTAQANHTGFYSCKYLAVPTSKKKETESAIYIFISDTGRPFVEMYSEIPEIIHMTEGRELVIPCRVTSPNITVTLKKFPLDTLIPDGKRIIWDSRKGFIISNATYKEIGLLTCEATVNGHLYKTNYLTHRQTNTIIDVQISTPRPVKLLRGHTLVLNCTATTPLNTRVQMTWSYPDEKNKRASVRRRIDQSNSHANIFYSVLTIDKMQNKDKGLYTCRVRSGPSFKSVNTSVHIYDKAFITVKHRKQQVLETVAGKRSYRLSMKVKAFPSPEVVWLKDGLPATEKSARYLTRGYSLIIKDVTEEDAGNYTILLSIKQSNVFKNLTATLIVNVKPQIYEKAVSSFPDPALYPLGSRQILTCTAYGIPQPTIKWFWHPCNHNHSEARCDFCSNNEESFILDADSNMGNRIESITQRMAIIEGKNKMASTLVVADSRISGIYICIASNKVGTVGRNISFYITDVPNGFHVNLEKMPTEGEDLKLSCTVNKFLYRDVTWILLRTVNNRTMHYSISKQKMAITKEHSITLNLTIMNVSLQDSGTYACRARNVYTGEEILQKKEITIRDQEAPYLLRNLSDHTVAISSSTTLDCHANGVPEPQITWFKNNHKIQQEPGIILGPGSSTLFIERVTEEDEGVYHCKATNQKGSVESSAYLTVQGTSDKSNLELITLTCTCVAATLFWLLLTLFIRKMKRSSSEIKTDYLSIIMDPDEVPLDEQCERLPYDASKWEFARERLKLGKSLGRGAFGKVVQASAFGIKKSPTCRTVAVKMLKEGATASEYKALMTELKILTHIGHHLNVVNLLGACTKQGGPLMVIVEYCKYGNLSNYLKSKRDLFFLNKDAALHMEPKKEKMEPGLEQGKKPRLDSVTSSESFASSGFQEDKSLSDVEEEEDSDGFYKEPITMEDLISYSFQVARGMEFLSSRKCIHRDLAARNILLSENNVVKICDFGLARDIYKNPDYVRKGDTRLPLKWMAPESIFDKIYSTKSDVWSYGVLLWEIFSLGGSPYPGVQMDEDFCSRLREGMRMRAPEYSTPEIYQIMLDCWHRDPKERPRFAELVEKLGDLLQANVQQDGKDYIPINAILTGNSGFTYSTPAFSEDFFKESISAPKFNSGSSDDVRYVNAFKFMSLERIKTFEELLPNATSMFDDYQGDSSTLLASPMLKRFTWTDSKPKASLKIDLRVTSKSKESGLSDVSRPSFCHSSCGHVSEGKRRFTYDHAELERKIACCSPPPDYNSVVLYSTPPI

For VEGFA (from UniProt P15692), the Kd is given as 100 pM.
